This passage reports ECL signal above background (fold above background) results from patent US6462254.

The target in the assay is angiostatin-FLAG-HA (pMB281.1). As to the kind of experiment: ECL sandwich assay on 293 cell lysate, biotinylated anti-FLAG M2 capture.

Turning to “anti-FLAG M2 monoclonal antibody (IBI/Kodak)”, the ECL signal above background (fold above background) is over 2.
